Tests used:
[1] = target: soluble IGFR1 (sIGFR1), NSO-expressed recombinant protein encompassing the alpha-subunit and the extracellular domain of the beta-subunit of IGFR1 (human) (UniProt P08069); experiment: SPR (Biacore 3000), IGFR1 on CM-5 chip, 25° C.
[2] = target: soluble IGFR1 (sIGFR1), NSO-expressed recombinant protein encompassing the alpha-subunit and the extracellular domain of the beta-subunit of IGFR1 (human) (UniProt P08069); experiment: SPR (Biacore 3000), IGFR1 on CM-5 chip, 37° C.
[3] = target: soluble IGFR1 (sIGFR1), NSO-expressed recombinant protein encompassing the alpha-subunit and the extracellular domain of the beta-subunit of IGFR1 (human) (UniProt P08069); experiment: SPR (Biacore 3000), IGFR1 on CM-5 chip, 25° C.; 25° C.
[4] = target: soluble IGFR1 (sIGFR1), NSO-expressed recombinant protein encompassing the alpha-subunit and the extracellular domain of the beta-subunit of IGFR1 (human) (UniProt P08069); experiment: SPR (Biacore 3000), IGFR1 on CM-5 chip, 25° C.; calculated from koff
[5] = target: soluble IGFR1 (sIGFR1), NSO-expressed recombinant protein encompassing the alpha-subunit and the extracellular domain of the beta-subunit of IGFR1 (human) (UniProt P08069); experiment: SPR (Biacore 3000), IGFR1 on CM-5 chip, 37° C.; calculated from koff
[6] = target: soluble IGFR1 (sIGFR1), NSO-expressed recombinant protein encompassing the alpha-subunit and the extracellular domain of the beta-subunit of IGFR1 (human) (UniProt P08069); experiment: isotype ELISA on coated soluble IGFR1, detected with HRP-anti-hu kappa
[7] = target: soluble IGFR1 (sIGFR1), NSO-expressed recombinant protein encompassing the alpha-subunit and the extracellular domain of the beta-subunit of IGFR1 (human) (UniProt P08069); experiment: isotype ELISA on coated soluble IGFR1, detected with HRP-anti-hu-gamma
[8] = target: soluble IGFR1 (sIGFR1), NSO-expressed recombinant protein encompassing the alpha-subunit and the extracellular domain of the beta-subunit of IGFR1 (human) (UniProt P08069); experiment: isotype ELISA on coated soluble IGFR1, detected with HRP-anti-human IgG3

B1: 15H12 fully human monoclonal anti-IGFR1 antibody (antibody, IgG3, V domains shown)
VH: EVQLVQSGGGLVHPGGSLRLSCAASGFTFSSFAMHWVRQAPGKGLEWISVIDTRGATYYADSVKGRFTISRDNAKNSLYLQMNSLRAEDMAVYYCARLGNFYYGMDVWGQGTTVTVSS
VL: EIVLTQVPDFQSVTPKEKVTITCRASQSIGSSLHWYQQKPDQSPKLLIKYASQSLSGVPSRFSGSGSGTDFTLTINSLEAEDAAAYYCHQSSRLPHTFGGGTKVEIKR
[1]
  koff: 2.24e-05 s⁻¹
[2]
  koff: 4.01e-05 s⁻¹
  kon: 720000 M⁻¹ s⁻¹
[3]
  kon: 500000 M⁻¹ s⁻¹
[4]
  Half-life: 8.6 h
[5]
  Half-life: 4.8 h
[6]
  ELISA signal (OD415 nm-490 nm): 1 OD
[7]
  ELISA signal (OD415 nm-490 nm): 1.9 OD
[8]
  ELISA signal (OD415 nm-490 nm): 0.813 OD

B2: 19D12 fully human monoclonal anti-IGFR1 antibody (antibody, V domains shown)
VH: B1 VH
VL: B1 VL
[1]
  koff: 2.65e-05 s⁻¹
  kon: 400000 M⁻¹ s⁻¹
[2]
  koff: 4.93e-05 s⁻¹
  kon: 680000 M⁻¹ s⁻¹
[4]
  Half-life: 7.27 h
[5]
  Half-life: 3.91 h

Reference: patent US20040018191A1
